Consider 2 molecules from patent publication WO2003050283A2.

Like-named read-outs stand apart in the source and are kept apart here.

In test [1] the target is chicken lysozyme (chicken) (UniProt P00698). The experiment in a line: ELISA, lysozyme (100 ug/ml) coated well blocked with ELK; ~50 ng iMab per well, urea-purified; anti-VSV-HRP.
The target is the same in test [2]. In words: ELISA, lysozyme (100 ug/ml) coated well blocked with ELK; ~50 ng iMab per well, purified by heat (60 C) solubilisation; anti-VSV-HRP.
Test [3] has the same target.
Test [4] deals with ELK (3% skim milk powder solution). In words: ELISA, ELK-coated control well; ~5 ng iMab per well, urea-purified; anti-VSV-HRP. (In general: In an ELISA, binding on a coated surface is turned into a signal by an enzyme label.)

Sequence of UniProt P00698 (P00698 19-147 limits assumed): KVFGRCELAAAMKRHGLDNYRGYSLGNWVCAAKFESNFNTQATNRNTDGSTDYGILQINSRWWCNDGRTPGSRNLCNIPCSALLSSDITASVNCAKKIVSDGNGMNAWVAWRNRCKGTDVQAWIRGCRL

B1: iMab100 (designed binder, not shown: small tags and cut ends)
chain: NVKLVEKGGNFVENDDDLKLTCRAEGYTIGPYCMGWFRQAPNDDSTNVATINMGGGITYYGDSVKERFDIRRDNASNTVTLSMDDLQPEDSAEYNCAGDSTIYASYYECGHGLSTGGYGYDSHYRGQGTDVTVSS
In the case of B1, the Absorbtion (450 nm) (absorbance (450 nm)) in test [1] was 0.494; in test [2], 0.369.

B2: iMab1200 (designed binder)
chain: HGLPMEKRGNFIVGQNCSLTCPASGYTIGPQCVFNCYFNSALAFSTENMGEWTLDMVFSDAGIYTMCAADSTIYASYYECGHGLSTGGYGYNPVSLGSFWDSP
As for B2, the Absorbtion (450 nm) (absorbance (450 nm)) in test [3] was 0.061; in test [4] it was 0.04.
